Laboratory results reported in the nanobody polyreactivity screen of Harvey et al. (2022).

Experiment: yeast display, Sf9 membrane polyspecificity reagent, FACS + sequencing; frameworks hold sequencing errors
Procedure, shortened: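 Nanobodies from a synthetic yeast display library (Saccharomyces cerevisiae BJ5465), induced 36–48 hours with galactose, were stained 1 hour at 4 °C with 10% biotinylated, detergent-solubilized Sf9 membrane reagent, enriched on streptavidin microbeads, then FACS-sorted. Anti-HA (expression) and streptavidin (reagent binding) fluorescence set low and high (top ~1%) gates. Polyreactivity labels come from the gate of origin. Genes were colony-PCR amplified, MiSeq 2 × 250 sequenced and filtered by CDR length.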

Row | Sequence | polyreactivity (PSR sort gate)
1 | QVQLVESGGGLVQAGGSLRIRCAASGGIFPPNAMGWYRHPPGKERELVASISSDGSTNYADSVKGRFTISRDNAKNNVILQMNSLKPEDTAVFYCNATHEAFELDYWGQGTQVNVSS | low polyreactivity
2 | QVQLVESGRGLFQAGGSLRLSCAASGSIFYSYAMGWYRQAPGKERELVAAISRSGGSTYYADSVKGRFTISRDNAKNTVYLQMNSLKPEDTAVYYCAAKNTGRYYWGLGTQVTVSS | high polyreactivity
3 | QVQLVESGGGLVQAGGSLRLSCAASGRIFRVNAMGWYRQAPGKERELVATITGSGGSTYYADSVKGRFTISRDNAKNTVHLQMNSLKPEDTAVYYCAVDRGRGSTYKYDYWGQGTQVTVSS | low polyreactivity
4 | PVQLVESGGGLVQAGGRLRLSCASSGLTFYYYAMGWYLQSPGKESELVAALSRSGGSTYYADSVKGRFTISRDNAQNTVYLQMISLKPEDTAVYYCAAREPYEVLLYYYEDYYWGQGTQVTVSS | high polyreactivity
5 | QVQLVESGGRLVQAGGSLRLSCAASGIIFFYYTIGWSRQAPGKERELVAAISSGGGTYYADSVKGRFTISRDNAKNTVYLQMNSLKPEDTAVYYCAAVRYSSSSRGGYWGQGTQVTVSS | high polyreactivity
6 | QVQLVESGGGLVQAGGTLRLSCAACGSTYYRNAMGWYRPAPGKERELVATITRSGGSTYYADSVKGRFTISRDNAKNTVYLQMNSLKPEDTAVYYCAARGWYKSDYWGQGTQVTVSS | low polyreactivity
7 | QVQLVESGGGLDQAGGSLRLSCAASGRIFRRYAMGWYRQAPGKERELVAAISTRGGSTYYADSVKGRFTISRDHAKNTVYLQMNSLKPEDTAVYYCNAEARSRRYRYDYWGQGTQVTVSS | high polyreactivity
8 | QVQLVESAAGLVQAGGSLRLSCAPSGSTFYLYDMGWYRQAPGKEREFVATITSGTSTTYADSVKGRFTISRDNAKNTVYLQMNSLKPEDTAVYYCNATDVGIITVGYGHGGYYWGQGTQVTVSS | low polyreactivity
9 | QVQLVESGGGLVQAGGSLRLSCAASGFIFSTYAMGWYRQAPGKERELVAAISWSGGRTNYADSVKGRFTISRDNAKNTVYLQMNSLKPEDTAVYYCAVGGERGARIGSNHRGSRYDYWGQGTQVTVSS | high polyreactivity
10 | QVKLVESGGRLVQAGGSLRLSCAASGFTNYAMGWNRQAPGKERELVAAITLSDASTYYADSVKGRFTISRDNAKNTVYLQMNSLKPEDTAVDYCAAKGGRSKSGARALGYWGQGTHVTVSS | low polyreactivity
11 | QGQHAESGGGLVQAGGSLRLTCAASGFTFVYYPMGWYRQATGKERELVAAISGRGGSTYYADSVKGRFTISRDNAKNTVFLQMNSMKPEDTAVYYCAADAYESGNWEANGYWGQGTQVSVSS | low polyreactivity
12 | QVHLVESGGGLVQAGGSLRLSCAASGRLSQNAMGGYRQAPGKERELVAAITFSGGSTYYADSVKGRFTISRDNAKNTVYLQMNSLKPEDTAVYYCAADDRPLYWRFPDEMDYWGQGTQVTVSS | low polyreactivity
13 | QDQLVESGGGLVQAGGSLRLSCAASGINFKYYAMGWYRQAPGKERELVAAISRSGSSTYYADSVKGRFTISRDNAKNTVYLQMNSLIPEDTSVYYCADQPYDSNYGNSGYWGQGTQVTVSS | high polyreactivity
14 | QVQLVESGGGLVQAGGSLRLSCAASGRIFPGYGMGWYRQAPGKERELVASISVGGGSTYYADSVKGRFTISRDNAKNTVYLQMNSLKPEDTAVYYCAADPSPYGDEYDYWGQGTQVTVSS | low polyreactivity
15 | QVQRVESGGGLVQAGGSLRLSCAASGSTFSSYAMGWYRQAPWKERELVAAISRSGGSTHYADSLKGRFTISRDNAKNTVYLQMNSLKPEDSAVYYCAADTGRYLDSNYWGQGTQVTVSS | high polyreactivity
16 | QDQLVESGGCLVQAGGSLRLSCASSGSTFGDYAMGWYRQAPGKERELVAAISVSGASTYYADSVKGRFTISRDNAKNTVYLQMNSLKPEDTAVYYCAASYDTIGDSWGQGTQVSVSS | low polyreactivity
17 | QVQLVESGGGLVQAGGSLRLSCAASGSTFGGNAMGWYRQAPGKERELVAAITIGGRTNYADSVKGRFTISRDNAKNTVYLQMNSLKPEDTAVYYCAKDRDQWQDYWGQGTQVTVSS | low polyreactivity
18 | QVQLVESGGGLVQAGGSLRLSCAASGYIFDGNAMGWYRQAPGKERELVAPITWTGGSTYYADSVKGRFTISRDNAKNTVYLQMNSLKPEDTAVYYCAKPYDPGPYHSSYRATDDYWGQGTQVTVSS | low polyreactivity
19 | QVQLVESGGGLVQAGGSLRLSCAASGRTFANYAMGWYRQAPGKERELVAAISYSGGSTYYADSVKGRFTISRDNAKNTVYLQMNSLKPVDTAVYYCAKRWTGLGGYYYWGQGTQVTVSS | high polyreactivity
20 | QVQLVESGGGLVQAGGSLRLSCAASGSIFSSNTMGWYRPAPGKERELVAAITSGGGTYYADSVKGRFTISRDNAKNTVSLQMNSLKPEDTAVYYCAAQRVYKSSPSYDYWGQGTLVTVSS | low polyreactivity
21 | QVQLVESGGGLVQAGGSLRLSCAASGIIFSYYTMGWYRQAPGKERELVAAISRTGGRTYYADSVKGRFTISRDNAKNTVYLQMNSLKPEDTAVYYCAAEQQYASICYDYWGQGTEVTVSS | high polyreactivity
22 | QVQLVESGGGLVQAGGSLRLSCAASGLNFYYYAMGWYRQAPGKERELVATISSRGGSTNYADSVKGRFTISRDNAKNTVYLQMNSLKPEDTAVYYCAADRRARVWTYRSYDYWGQGTQVTVSS | high polyreactivity

Row | Sequence | polyreactivity (PSR sort gate)
23 | QVQLVESGGGLVQAGGSLRLSCAASGLTFGGYAMGWYRQAPGKERELVAAISRSGTSTYYADSVKGRFTISRDNAKNTVYLQMNSLKPEDTAVYYCAKELYSWLQGYRGEGTMDYWGQGTQVTVSS | high polyreactivity
24 | QVQLVESGGCLVQAGGSLRLSCAASGFIFGYYAMGWYRPPPGKESELVAAISWSGVSTYYADSVKGRFTISRDNAKNTVYLQMNSLKPEDTAVYYCAVGYVLTGVFQARFDYWGQGTQATVSS | high polyreactivity
25 | QVQLLESGGGLVQAGCSLRLSCAASGFIFSYAMGWYRQAPGKERQLVAAISKSGCRTYYADSVKGRFTISRDNAKNTVYLQMNSMKPEDTEVYYCAVRDLHLSNARYNFWGQGNQVTVSS | high polyreactivity
26 | QVQLVESGGGLVQAGGSLRLSCAASGFTFFWYAMGWYRQAPGKERELVAGITYRGGSTYYADSVKGRFTISRDNAKNTVYLQMNSLKPEDTAVYYCNADVVTKHISAWWDRYYRRYYYWGQGTQVTVSS | low polyreactivity
27 | QVQLVESGGGLVQAGGSLRLSCAASGSILSFYAMGWYRQAPGKERELVATISRRGGSTYYADSVKGRFTISRDNAKNTVYLQMNSLKPEDTAVYYCNKPGLSAWTQSSQYEYDYWGQGTQVTVSS | high polyreactivity
28 | QVQLVESGGGLVQAGGSLRLSCAASGFIFVIYAKGWYRQAPGKERELVARISFRSGRTYYADSVKGRFTISRDNAKNTVYLQMNSLKPEDTAVYYCNAVLYGQYKYDYWGQGTQVTVSS | high polyreactivity
29 | AVQLVESGGGLVQAGGSLRLSCAASGSIFPWYTMGWYRQAPGKERELVASITKSGARTYYADSVKGRFTISRDNAKNTVYLQMNSLKPEDTAVYYCAAVYPVWKYHYAYWGQGTQVTVSS | high polyreactivity
30 | QVQLVESGGGLVQAGGILRLICDASGFIIGYYAMGWYRQAPGKERELVAAISKSGGRTRYADSVKGRFTISRDNAKNTVYLQMNSLKPEDTAVYYCATYDPARSTQGYDYWGQGTQVTVSS | high polyreactivity
31 | QVQLVESGGGLVQAGGSLRLSCAASGIIFPYYAMGLYRQAPGKERELVAAITSRTGSTYYADSVKGRFTISRDNAKNTVYLQMNSLNTEYTAVYYCIKEREPYGYWSFDYWGQGTQVTVSS | low polyreactivity
32 | QVQLVESGGGLVQAGGSLSLSCAASGSTFNHYAMGWYSPAPGKERELVAAISSRGGSTHYADSVKGRFTISRDNAKNTVYLQMNSLKPEDTAVYDCARDTDPQSSRSSDYDYWGQGTQVTVSS | low polyreactivity
33 | QVQLVESGGGLVQAGGSLRLSCASSGSTFSIYAMGWYRQAPGKERELVAGISGSGGSTYYADSVKGRFTISRDNAKNTVYLQMNSLKPEDTAVYYCAKRVLWGLDYWGQGTQVTVSS | low polyreactivity
34 | QVQLEESGGGLVQAGGSLRLSCAASGRTFYYNAMGSSRQAPGKERELVAGITYRGGSTYYADSVKGRFTISRDNAKNTVYLQMNSLKPEDTAVYYCAVKYSWLSRFNYWGLGTQVTVSS | high polyreactivity
35 | QVQLVESGGALVQAGGSLRLSCAASGSTFGRYAMGWYRQAPGKERELVATIRSGGSTTYADSVKGRFTISRDNAKNTVYLQMNSLKREDTAVYYCAAGTKPSYYYWGQGTQVTVSS | low polyreactivity
36 | QVQLVESGGGLVQAGGSLRLSCAASGRIFSYYAMGWYRQAPGKERELVAAISWSGGRTYYADSVKGRFTISRDNAKNTVYLQMNSLKPEDTAVYYCAARLKLYLPRSAYDYWGQGTQVTVSS | high polyreactivity
37 | QVQLVESGGGLVQAGGSLRLSCAASGRTSLNYAMGWYRQAPGKERELVAAITLRGGNTYYADSVKGRFTISRDNAKNTVYLQMNSLKPEDTAVYYCAAYTKEISIYYPYEYWGQGTQVTVSS | high polyreactivity
38 | QVQLVESGGGLVQAGGSLRLSCAASGSTFTSYAMGWYRQAPGKERELVAGITSRGTSTYYADSVKGRFTISRDHAKNTVYLQMNSLKPEYTAVYYCAAVYLSYGPGSEDPLGYWGQGTQVTVSS | high polyreactivity
39 | QVQLVESGGGLVQAGGSLRLSCAASGSNFANYAMGWYIQAHGKERELVAAISWSGSSTYYADSVKGRFTISRYNAKNTVYLQMNSLKPEDTAVYYCAADYATPTWEYYYWGQGTQVTVSS | low polyreactivity
40 | QVQLVESGGGLVQAGGSLRLSCAASGYTFDQYAMGWYRQAPGKERELVAGIDSAGSTYYADSVKGRFTISRDNAKITVYLQMNSLKPEDTAVYYCNADDLNTEVPYYYWGQGTQVTGSS | low polyreactivity
41 | QVQRVESGGGLVQAGGSLRLSCAASGSIFYGNAMGWYRQAPGKERELVAAISWSGGSTYYADSVKGRFTISRDNAKNTVYLQMNSLKPEDTAVYYCATVADEPRAYSGYEESDYWGQGTQVTVSS | low polyreactivity
42 | QVQLVESGGGLVQAGGSLRLSCSASGFIFGPNAMGWYRQAPGKEMELVAAISWMGSSTYYADSVKGRFTISRDNANNTVYLQMNSLKPEDTAVYYCAADSSERRLLDFDYWGQGTNVTVSS | low polyreactivity
43 | QVQLVESGGGLVQAGGSLRLSCAASGFTFRYYAMGWYRQAPGKERELVAAISWSGGSTYYADSVKGRFTISRDNAKNTVYLQMNSLKPEDTAVYYCNAYAYYSHGVTTTYDYWGQGTQVTVSS | high polyreactivity
